These are literature values, as cited in publication PMC5179943.

The target of the data set is LRP2/Megalin (Homo sapiens) (UniProt P98164). As to the kind of experiment: solid phase binding assay.
Sequence of UniProt P98164 (P98164 26-4423): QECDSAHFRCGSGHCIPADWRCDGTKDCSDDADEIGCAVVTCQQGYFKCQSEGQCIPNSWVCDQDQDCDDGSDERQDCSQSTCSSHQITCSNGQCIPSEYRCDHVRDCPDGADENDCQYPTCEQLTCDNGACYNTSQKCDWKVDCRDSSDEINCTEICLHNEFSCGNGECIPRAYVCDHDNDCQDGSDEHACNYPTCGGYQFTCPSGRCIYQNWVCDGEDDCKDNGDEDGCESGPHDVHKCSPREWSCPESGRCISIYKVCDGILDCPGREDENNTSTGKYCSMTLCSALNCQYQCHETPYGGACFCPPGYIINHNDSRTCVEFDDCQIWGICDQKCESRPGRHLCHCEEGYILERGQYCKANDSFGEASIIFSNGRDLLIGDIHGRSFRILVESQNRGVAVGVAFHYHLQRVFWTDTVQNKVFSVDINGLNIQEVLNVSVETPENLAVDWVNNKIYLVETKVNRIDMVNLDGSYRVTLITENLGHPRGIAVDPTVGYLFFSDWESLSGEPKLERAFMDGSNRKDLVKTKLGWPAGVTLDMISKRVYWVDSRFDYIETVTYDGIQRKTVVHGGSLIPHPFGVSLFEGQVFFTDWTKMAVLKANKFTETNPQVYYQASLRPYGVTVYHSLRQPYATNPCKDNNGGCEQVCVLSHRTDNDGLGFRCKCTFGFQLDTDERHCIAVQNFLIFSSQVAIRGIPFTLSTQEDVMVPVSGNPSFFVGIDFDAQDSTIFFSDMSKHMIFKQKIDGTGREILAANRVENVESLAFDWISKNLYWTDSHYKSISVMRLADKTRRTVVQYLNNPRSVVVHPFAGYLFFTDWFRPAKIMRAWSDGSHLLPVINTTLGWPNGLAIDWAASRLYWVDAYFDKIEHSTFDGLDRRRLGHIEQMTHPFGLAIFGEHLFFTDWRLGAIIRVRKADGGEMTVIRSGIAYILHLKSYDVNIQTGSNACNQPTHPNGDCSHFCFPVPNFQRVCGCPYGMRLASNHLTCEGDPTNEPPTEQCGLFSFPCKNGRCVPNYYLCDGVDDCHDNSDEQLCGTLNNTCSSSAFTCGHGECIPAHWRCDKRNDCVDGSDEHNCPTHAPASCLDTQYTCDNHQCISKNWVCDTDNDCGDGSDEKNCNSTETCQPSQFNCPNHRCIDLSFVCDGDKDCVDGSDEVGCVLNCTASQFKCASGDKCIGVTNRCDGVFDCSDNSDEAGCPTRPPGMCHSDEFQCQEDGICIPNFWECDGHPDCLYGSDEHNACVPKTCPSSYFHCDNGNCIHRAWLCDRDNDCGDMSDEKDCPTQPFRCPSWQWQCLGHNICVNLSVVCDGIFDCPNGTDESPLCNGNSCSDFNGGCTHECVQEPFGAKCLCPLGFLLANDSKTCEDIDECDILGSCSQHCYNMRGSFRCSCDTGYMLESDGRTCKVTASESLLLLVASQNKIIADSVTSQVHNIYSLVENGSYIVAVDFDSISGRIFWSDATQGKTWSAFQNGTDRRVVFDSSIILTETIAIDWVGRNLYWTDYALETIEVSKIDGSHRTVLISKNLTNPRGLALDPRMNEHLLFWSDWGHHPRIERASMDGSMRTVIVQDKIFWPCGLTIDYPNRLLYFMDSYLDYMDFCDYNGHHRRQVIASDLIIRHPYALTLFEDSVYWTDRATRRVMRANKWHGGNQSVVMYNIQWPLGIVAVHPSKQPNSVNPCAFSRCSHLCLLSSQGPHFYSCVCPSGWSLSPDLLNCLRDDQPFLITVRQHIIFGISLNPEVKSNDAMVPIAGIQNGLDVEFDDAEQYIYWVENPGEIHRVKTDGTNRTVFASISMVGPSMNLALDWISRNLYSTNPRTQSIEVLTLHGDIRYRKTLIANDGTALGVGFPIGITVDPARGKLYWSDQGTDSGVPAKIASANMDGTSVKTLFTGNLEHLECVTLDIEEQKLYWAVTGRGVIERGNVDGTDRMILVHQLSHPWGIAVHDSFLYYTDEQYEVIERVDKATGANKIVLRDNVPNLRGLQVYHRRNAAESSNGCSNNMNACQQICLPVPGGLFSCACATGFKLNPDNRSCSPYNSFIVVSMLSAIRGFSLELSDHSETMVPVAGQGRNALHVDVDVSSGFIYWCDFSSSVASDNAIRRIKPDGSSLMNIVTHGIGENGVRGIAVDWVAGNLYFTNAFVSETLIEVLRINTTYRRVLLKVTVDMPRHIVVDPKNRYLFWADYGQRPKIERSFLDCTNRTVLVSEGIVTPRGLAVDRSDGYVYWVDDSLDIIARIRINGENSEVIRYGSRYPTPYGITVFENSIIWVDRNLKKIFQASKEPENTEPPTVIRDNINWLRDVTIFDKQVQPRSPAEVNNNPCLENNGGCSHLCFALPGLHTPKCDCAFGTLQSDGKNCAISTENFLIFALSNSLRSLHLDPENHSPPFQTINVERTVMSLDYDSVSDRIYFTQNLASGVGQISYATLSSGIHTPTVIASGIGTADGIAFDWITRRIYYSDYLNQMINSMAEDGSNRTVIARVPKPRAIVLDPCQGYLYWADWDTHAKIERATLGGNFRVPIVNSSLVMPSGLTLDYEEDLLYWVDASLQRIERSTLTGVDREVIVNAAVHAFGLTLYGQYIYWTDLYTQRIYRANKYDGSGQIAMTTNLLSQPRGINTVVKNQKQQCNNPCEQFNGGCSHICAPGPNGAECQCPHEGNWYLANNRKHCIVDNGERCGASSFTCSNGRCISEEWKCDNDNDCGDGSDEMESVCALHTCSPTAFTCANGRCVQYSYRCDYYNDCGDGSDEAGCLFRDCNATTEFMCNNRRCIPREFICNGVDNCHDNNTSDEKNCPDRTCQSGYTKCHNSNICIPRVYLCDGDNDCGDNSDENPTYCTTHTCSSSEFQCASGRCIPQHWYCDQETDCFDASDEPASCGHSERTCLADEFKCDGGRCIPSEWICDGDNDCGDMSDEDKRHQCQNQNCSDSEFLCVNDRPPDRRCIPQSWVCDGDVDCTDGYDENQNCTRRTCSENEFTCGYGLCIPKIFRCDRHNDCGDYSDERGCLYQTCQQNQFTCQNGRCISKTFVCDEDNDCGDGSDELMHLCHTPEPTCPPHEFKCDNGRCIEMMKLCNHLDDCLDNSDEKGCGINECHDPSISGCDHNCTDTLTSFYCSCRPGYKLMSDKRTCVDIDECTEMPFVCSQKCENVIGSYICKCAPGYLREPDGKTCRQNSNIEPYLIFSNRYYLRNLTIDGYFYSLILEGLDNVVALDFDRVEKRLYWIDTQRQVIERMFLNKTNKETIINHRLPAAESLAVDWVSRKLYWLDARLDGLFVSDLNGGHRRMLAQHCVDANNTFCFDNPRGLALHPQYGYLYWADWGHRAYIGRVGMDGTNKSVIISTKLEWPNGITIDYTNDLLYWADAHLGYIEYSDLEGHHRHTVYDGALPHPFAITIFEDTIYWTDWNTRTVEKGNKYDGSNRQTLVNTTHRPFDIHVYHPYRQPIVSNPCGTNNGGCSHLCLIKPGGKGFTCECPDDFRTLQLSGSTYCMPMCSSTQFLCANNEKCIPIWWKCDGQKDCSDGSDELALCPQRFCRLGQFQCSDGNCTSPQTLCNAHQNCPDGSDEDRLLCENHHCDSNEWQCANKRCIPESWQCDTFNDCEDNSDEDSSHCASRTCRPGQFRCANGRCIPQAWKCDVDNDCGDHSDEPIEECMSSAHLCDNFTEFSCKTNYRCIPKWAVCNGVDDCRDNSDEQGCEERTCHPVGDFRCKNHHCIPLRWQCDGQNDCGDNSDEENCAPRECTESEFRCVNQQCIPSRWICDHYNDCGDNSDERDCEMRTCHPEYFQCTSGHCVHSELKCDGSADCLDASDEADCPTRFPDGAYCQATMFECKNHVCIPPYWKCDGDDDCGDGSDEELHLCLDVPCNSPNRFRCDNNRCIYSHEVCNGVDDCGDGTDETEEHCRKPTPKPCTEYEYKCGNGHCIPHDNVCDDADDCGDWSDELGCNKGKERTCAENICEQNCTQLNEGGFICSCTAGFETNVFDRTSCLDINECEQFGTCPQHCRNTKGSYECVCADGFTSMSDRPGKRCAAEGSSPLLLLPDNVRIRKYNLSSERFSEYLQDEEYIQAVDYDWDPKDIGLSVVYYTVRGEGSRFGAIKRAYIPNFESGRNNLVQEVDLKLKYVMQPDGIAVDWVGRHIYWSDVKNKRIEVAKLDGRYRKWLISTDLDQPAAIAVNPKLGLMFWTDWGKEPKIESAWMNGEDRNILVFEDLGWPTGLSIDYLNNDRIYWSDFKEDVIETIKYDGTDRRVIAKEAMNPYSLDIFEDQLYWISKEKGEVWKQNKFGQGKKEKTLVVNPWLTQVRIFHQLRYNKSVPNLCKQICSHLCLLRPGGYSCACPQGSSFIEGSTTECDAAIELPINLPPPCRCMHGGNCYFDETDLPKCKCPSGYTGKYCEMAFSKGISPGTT

Take Clusterin (from UniProt P10909): the equilibrium dissociation constant (Kd) is 14.2 nM.

What is called Kd is the constant that tells how readily two partners part at equilibrium.
